Test results: publication PMC6007841 (Journal of medicinal chemistry, 2018)
Bridge positions count the residues as written; N and C are the ends. Ends that are not written are not given here.

What was measured:
Test in all cases: cell-based or functional assay
[1] = molecular target: mouse melanocortin 5 receptor (mouse, UniProt P41149 1-325)
[2] = molecular target: human melanocortin 4 receptor (human, UniProt P32245 1-332)
[3] = molecular target: mouse melanocortin 1 receptor (mouse, UniProt Q01727 1-315)
[4] = molecular target: human melanocortin 1 receptor (human, UniProt Q01726 1-317)
[5] = molecular target: human melanocortin 3 receptor (human, UniProt P41968 1-323)
[6] = molecular target: mouse melanocortin 3 receptor (mouse, UniProt P33033 1-323)
Sequence of mouse melanocortin 3 receptor (P33033 whole entry): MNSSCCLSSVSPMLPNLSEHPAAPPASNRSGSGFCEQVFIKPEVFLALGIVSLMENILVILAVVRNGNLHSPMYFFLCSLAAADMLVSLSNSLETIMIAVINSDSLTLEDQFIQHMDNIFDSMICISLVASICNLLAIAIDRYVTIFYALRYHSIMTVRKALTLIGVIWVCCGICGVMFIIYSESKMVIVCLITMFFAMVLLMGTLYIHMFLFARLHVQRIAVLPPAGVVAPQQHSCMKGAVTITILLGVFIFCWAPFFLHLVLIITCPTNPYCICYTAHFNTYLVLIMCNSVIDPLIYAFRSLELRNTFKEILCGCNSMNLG

Sequence of human melanocortin 1 receptor (Q01726 whole entry): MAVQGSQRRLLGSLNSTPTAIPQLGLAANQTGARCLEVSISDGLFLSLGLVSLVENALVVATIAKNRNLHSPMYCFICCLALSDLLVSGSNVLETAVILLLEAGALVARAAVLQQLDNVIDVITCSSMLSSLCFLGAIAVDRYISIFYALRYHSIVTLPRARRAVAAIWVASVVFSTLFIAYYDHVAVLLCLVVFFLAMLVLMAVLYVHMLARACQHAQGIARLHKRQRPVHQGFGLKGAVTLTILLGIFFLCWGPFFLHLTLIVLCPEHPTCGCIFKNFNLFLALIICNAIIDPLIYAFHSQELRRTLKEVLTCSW
Sequence of human melanocortin 4 receptor (P32245 whole entry): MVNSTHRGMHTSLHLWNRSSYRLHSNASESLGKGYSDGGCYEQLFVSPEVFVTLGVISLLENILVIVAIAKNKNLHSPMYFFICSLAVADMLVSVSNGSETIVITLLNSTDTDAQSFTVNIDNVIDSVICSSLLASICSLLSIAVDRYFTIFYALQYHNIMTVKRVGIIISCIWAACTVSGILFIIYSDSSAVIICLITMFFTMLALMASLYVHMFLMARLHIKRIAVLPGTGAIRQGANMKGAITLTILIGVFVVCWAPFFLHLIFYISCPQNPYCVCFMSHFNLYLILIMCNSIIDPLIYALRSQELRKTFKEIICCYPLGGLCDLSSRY
Sequence of mouse melanocortin 1 receptor (Q01727 whole entry): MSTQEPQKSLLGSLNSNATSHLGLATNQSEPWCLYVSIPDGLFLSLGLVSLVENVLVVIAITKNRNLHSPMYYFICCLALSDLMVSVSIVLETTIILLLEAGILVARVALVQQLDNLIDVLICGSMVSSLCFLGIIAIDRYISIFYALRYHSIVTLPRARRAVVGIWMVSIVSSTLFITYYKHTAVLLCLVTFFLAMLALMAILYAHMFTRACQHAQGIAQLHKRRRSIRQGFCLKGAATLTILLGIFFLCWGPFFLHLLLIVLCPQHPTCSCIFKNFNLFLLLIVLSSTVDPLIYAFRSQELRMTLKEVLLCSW
Sequence of mouse melanocortin 5 receptor (P41149 whole entry): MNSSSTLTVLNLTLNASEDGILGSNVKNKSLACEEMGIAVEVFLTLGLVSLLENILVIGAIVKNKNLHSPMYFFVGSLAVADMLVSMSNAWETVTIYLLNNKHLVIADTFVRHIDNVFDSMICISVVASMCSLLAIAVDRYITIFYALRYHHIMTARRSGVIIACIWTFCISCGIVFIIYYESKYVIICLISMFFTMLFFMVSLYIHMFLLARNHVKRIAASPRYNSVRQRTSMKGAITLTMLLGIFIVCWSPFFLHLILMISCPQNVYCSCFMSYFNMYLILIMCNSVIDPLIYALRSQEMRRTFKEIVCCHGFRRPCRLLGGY
Sequence of human melanocortin 3 receptor (P41968 whole entry): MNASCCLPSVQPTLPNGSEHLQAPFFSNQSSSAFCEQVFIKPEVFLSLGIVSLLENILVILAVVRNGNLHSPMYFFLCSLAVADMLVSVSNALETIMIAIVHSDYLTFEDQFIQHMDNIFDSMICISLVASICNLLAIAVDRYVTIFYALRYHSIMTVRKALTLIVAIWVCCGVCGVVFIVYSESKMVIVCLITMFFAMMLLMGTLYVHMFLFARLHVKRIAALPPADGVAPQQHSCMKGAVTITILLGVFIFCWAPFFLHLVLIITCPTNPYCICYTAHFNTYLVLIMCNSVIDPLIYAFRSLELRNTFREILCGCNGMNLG

| Binder | cAMP agonist EC50 (AlphaScreen cAMP assay, HEK293 cells expressing the receptor) [1] | cAMP agonist EC50 (AlphaScreen cAMP assay, HEK293 cells expressing the receptor) [2] | cAMP agonist EC50 (AlphaScreen cAMP assay, HEK293 cells expressing the receptor) [3] | cAMP agonist EC50 (AlphaScreen cAMP assay, HEK293 cells expressing the receptor) [4] | cAMP agonist EC50 (AlphaScreen cAMP assay, HEK293 cells expressing the receptor) [5] | cAMP agonist EC50 (AlphaScreen cAMP assay, HEK293 cells expressing the receptor) [6] |
| --- | --- | --- | --- | --- | --- | --- |
| GIINTLQKYYCRVRGGRCAVLSCLPKEEQIGKCSTRGRKCCRRKK (peptide, UniProt P81534 23-67, looked up, oxidized, folded form (disulfide bonds formed)) [human β-defensin 3, oxidized, folded form] | 4.7 µM | 2.6 µM | 2.2 µM | 0.4 µM |  |  |
| DQYKCLQHGGFCLRSSCPSNTKLQGTCKPDKPNCCKS (peptide, UniProt P56386 33-69, looked up, disulfide 12-27, 17-35, 5-34) [mouse β-defensin 1, oxidized form] | 5.2 µM | 3.8 µM | 11 µM | 1.4 µM | 22 µM | 14 µM |
| DHYNCVSSGGQCLYSACPIFTKIQGTCYRGKAKCCK (peptide, UniProt P60022 33-68, looked up, oxidized form (disulfide bonds formed)) [human β-defensin 1, oxidized form] |  |  |  | 7.4 µM |  |  |
